# US20210139581A1 (Alector, published 2021)
# Where two headings read alike, the source gives them in different places.
# Tests used:
# [1] = target: T1, human CD33 (human, UniProt P20138 18-259, limits assumed); experiment: BLI (ForteBio), Fab 100 nM on immobilized CD33
# T1 construct: Human CD33 immobilized on the BLI sensor tip or the BIAcore C1 chip; also called Siglec-3
# Method: (§1) The affinities (KD) of the humanized antibodies for human CD33 were measured for each antibody by BioLayer Interferometry in a ForteBio assay according to standard techniques (Estep et al. (2013) MAbs 5(2): 270-8). […] The assay was carried out at room temperature.
# The affinities of AB-H14 and its affinity-matured variants (Table 15) and AB-H63 and its affinity-matured variants (Table 16), for human CD33 were measured by Fortebio assay according to the method described in Example 1 above.
# [2] = target: T2, human CD33 on primary human monocyte-derived dendritic cells (human, UniProt P20138 18-364); experiment: cell-based or functional assay
# T2 sequence (P20138 18-364): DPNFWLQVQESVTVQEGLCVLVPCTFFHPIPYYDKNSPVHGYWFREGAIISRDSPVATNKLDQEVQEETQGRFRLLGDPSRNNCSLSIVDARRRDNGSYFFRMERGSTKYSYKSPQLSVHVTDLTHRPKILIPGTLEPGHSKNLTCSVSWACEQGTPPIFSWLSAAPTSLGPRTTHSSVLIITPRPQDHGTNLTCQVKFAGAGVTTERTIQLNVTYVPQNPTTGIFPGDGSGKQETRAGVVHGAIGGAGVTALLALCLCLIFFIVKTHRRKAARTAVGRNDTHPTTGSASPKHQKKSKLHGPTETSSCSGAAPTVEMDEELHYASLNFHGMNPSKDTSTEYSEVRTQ
# [3] = target: T2, human CD33 on primary human …; experiment: cell-based or functional assay; remark: listed apart in the source
# [4] = target: T1, human CD33; experiment: BLI (ForteBio), Fab 100 nM on immobilized CD33; remark: listed apart in the source
# Method: as §1
# The affinity parameters of two of the antibodies, 64.1.2 and 64.1.8, were measured in a separate experiment by BIAcore, where they were directly compared to the parental antibody, AB-64.1, the parental humanized antibody, AB-H64, and the Chimeric Ab.
# [5] = target: T2, human CD33 on primary human …; experiment: cell-based or functional assay; remark: listed apart in the source
# [6] = target: T2, human CD33 on primary human …; experiment: cell-based or functional assay; remark: listed apart in the source
# [7] = target: T1, human CD33; experiment: SPR (BIAcore), Fab over CD33 on C1 chip
# Method: The affinity parameters for 10 of the 88 humanized antibodies (AB-H1, AB-H3, AB-H6, AB-H11, AB-H22, AB-H24, AB-H26, AB-H63, AB-H64, and AB-H71) were measured in a separate experiment by a more sensitive technique, surface plasmon resonance (BIAcore), and compared to Chimeric Ab and Chimeric Ab #2. BIAcore measurements were performed as follows: human CD33 was immobilized on the surface of a C1 chip, and Fabs were injected for 300 s to monitor association, followed by a 900 s flow in running buffer to monitor dissociation. The Fabs were measured at 5 concentrations: a high concentration of 27 nM and 3-fold serial dilutions.
# T1 sequence (P20138 18-259 limits assumed): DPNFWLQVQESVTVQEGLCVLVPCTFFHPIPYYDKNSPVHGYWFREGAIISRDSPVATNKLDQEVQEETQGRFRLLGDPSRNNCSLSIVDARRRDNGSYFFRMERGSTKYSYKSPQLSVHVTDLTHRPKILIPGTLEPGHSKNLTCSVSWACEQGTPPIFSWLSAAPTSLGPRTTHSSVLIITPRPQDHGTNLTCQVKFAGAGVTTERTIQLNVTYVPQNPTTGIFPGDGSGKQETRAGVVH
binder,measurement,setting,value
"AB-14.8 (antibody, V domains shown) VH: QVQLVQSGAEVKKPGASVKVSCKASGYTFTDYNYHWVRQAPGQGLEWIGFIYPSNGITGYAQKFQGRVTMTVDTSTSTVYMELSSLRSEDTAVYYCARSDVDYFDYWGQGTLVTVSS VL: DIQMTQSPSSLPASVGDRVTITCRASQSVGTSTYSYMHWYQQKPGKAPKLLIKYASNLGSGVPSRFSGSGSGTDFTLTISSLQPEDFATYYCQHSWEIPLTFGQGTKLEIK",Fold affinity improvement over parental Ab (AB-H14),[1],13.6 fold
same,Kd,[1],0.214 nM
same,koff,[1],0.0002 s⁻¹
same,kon,[1],935000 M⁻¹ s⁻¹
same,Maximal Downregulation (% CD33 remaining),[2],21.2%
same,Receptor downregulation (EC50),[2],0.0234 nM
"AB-64.1.4 (antibody, V domains shown, Variant of AB-64.1) VH: QVQLVQSGAEVKKPGASVKISCKASGYTFTDYNLHWVRQAPGQGLEWIGFIYPSNGITGYAQKFQGRATLTVDTSTSTAYMELSSLRSEDTAVYYCARSDVDYFDYWGQGTLLTVSS VL: DIVLTQSPDSLAVSLGERATINCRASQSVSTSTYSYMHWYQQKPGQPPKLLIKYASNLESGVPDRFSGSGSGTDFTLTISSLQAEDVAVYYCQHSWEIPLTFGQGTKLEIK",Receptor downregulation (% remaining at 0.16 µg/mL antibody),[3],38%
same,Kd,[4],0.639 nM
"AB-64.1.11 (antibody, V domains shown, Variant of AB-64.1) VH: QVQLVQSGAEVKKPGASVKISCKASGYTFTDYNLHWVRQAPGQGLEWIGFIYPSNRITGYAQKFQGRATLTVDQSTSTAYMELSSLRSEDTAVYYCARSDVDYFDYWGQGTLLTVSS VL: DIVLTQSPDSLAVSLGERATINCRASQSVSTSTYSYMHWYQQKPGQPPKLLIKYASNLESGVPDRFSGSGSGTDFTLTISSLQAEDVAVYYCQHSWEIPLTFGQGTKLEIK",Receptor downregulation (% remaining at 0.16 µg/mL antibody),[3],38.6%
same,Kd,[4],1.15 nM
"AB-64.1.12 (antibody, V domains shown, Variant of AB-64.1) VH: QVQLVQSGAEVKKPGASVKISCKASGYTFTDYNLHWVRQAPGQGLEWIGFIYPSNRITGYAQKFQGRATLTVDNSASTAYMELSSLRSEDTAVYYCARSDVDYFDYWGQGTLLTVSS VL: DIVLTQSPDSLAVSLGERATINCRASQSVSTSTYSYMHWYQQKPGQPPKLLIKYASNLESGVPDRFSGSGSGTDFTLTISSLQAEDVAVYYCQHSWEIPLTFGQGTKLEIK",Receptor downregulation (% remaining at 0.16 µg/mL antibody),[3],38.5%
same,Kd,[4],0.922 nM
"AB-64.1.7 (antibody, V domains shown, Variant of AB-64.1) VH: QVQLVQSGAEVKKPGASVKISCKASGYTFTDYNLHWVRQAPGQGLEWIGFIYPSNGITGYAQKFQGRATLTVDNPTSTAYMELSSLRSEDTAVYYCARSDVDYFDYWGQGTLLTVSS VL: DIVLTQSPDSLAVSLGERATINCRASQSVSTSTYSYMHWYQQKPGQPPKLLIKYASNLESGVPDRFSGSGSGTDFTLTISSLQAEDVAVYYCQHSWEIPLTFGQGTKLEIK",Receptor downregulation (% remaining at 0.16 µg/mL antibody),[3],35.9%
same,Kd,[4],0.391 nM
"AB-64.1.3 (antibody, V domains shown, Variant of AB-64.1) VH: QVQLVQSGAEVKKPGASVKISCKASGYTFTDYNLHWVRQAPGQGLEWIGFIYPSNVITGYAQKFQGRATLTVDNSTSTAYMELSSLRSEDTAVYYCARSDVDYFDYWGQGTLLTVSS VL: DIVLTQSPDSLAVSLGERATINCRASQSVSTSTYSYMHWYQQKPGQPPKLLIKYASNLESGVPDRFSGSGSGTDFTLTISSLQAEDVAVYYCQHSWEIPLTFGQGTKLEIK",Receptor downregulation (% remaining at 0.16 µg/mL antibody),[3],38.5%
same,Kd,[4],0.647 nM
"AB-14.10 (antibody, V domains shown) VH: QVQLVQSGAEVKKPGASVKVSCKASGYTFTDYNYHWVRQAPGQGLEWIGFIYPSNGITGYAQKFQGRVTMTVDTSTSTVYMELSSLRSEDTAVYYCARSDVDYFDYWGQGTLVTVSS VL: DIQMTQSPSSLSASVGDRVTITCRASQSVSASTYSYMHWYQQKPGKAPKLLIKYASNLESGVPSRFSGSGSGTDFTLTISSLQPEDLATYYCQHSWEIPLTFGQGTKLEIK",Fold affinity improvement over parental Ab (AB-H14),[1],13.2 fold
same,Kd,[1],0.221 nM
same,koff,[1],0.0002 s⁻¹
same,kon,[1],906000 M⁻¹ s⁻¹
same,Maximal Downregulation (% CD33 remaining),[2],20.9%
same,Receptor downregulation (EC50),[2],0.0494 nM
"AB-64.1.6 (antibody, V domains shown, Variant of AB-64.1) VH: QVQLVQSGAEVKKPGASVKISCKASGYTFTDYNLHWVRQAPGQGLEWIGFIYPSNGITGYAQKFQGRATLTVDNSASTAYMELSSLRSEDTAVYYCARSDVDYFDYWGQGTLLTVSS VL: DIVLTQSPDSLAVSLGERATINCRASQSVSTSTYSYMHWYQQKPGQPPKLLIKYASNLESGVPDRFSGSGSGTDFTLTISSLQAEDVAVYYCQHSWEIPLTFGQGTKLEIK",Receptor downregulation (% remaining at 0.16 µg/mL antibody),[3],37%
same,Kd,[4],0.836 nM
"AB-64.1.9 (antibody, V domains shown, Variant of AB-64.1) VH: QVQLVQSGAEVKKPGASVKISCKASGYTFTDYNLHWVRQAPGQGLEWIGFIYPSNQITGYAQKFQGRATLTVDNPTSTAYMELSSLRSEDTAVYYCARSDVDYFDYWGQGTLLTVSS VL: DIVLTQSPDSLAVSLGERATINCRASQSVSTSTYSYMHWYQQKPGQPPKLLIKYASNLESGVPDRFSGSGSGTDFTLTISSLQAEDVAVYYCQHSWEIPLTFGQGTKLEIK",Receptor downregulation (% remaining at 0.16 µg/mL antibody),[3],37.4%
same,Kd,[4],1.06 nM
"AB-64.1.10 (antibody, V domains shown, Variant of AB-64.1) VH: QVQLVQSGAEVKKPGASVKISCKASGYTFTDYNLHWVRQAPGQGLEWIGFIYPSNRITGYAQKFQGRATLTVDTSTSTAYMELSSLRSEDTAVYYCARSDVDYFDYWGQGTLLTVSS VL: DIVLTQSPDSLAVSLGERATINCRASQSVSTSTYSYMHWYQQKPGQPPKLLIKYASNLESGVPDRFSGSGSGTDFTLTISSLQAEDVAVYYCQHSWEIPLTFGQGTKLEIK",Receptor downregulation (% remaining at 0.16 µg/mL antibody),[3],39.8%
same,Kd,[4],1.45 nM
"AB-64.1.5 (antibody, V domains shown, Variant of AB-64.1) VH: QVQLVQSGAEVKKPGASVKISCKASGYTFTDYNLHWVRQAPGQGLEWIGFIYPSNGITGYAQKFQGRATLTVDQSTSTAYMELSSLRSEDTAVYYCARSDVDYFDYWGQGTLLTVSS VL: DIVLTQSPDSLAVSLGERATINCRASQSVSTSTYSYMHWYQQKPGQPPKLLIKYASNLESGVPDRFSGSGSGTDFTLTISSLQAEDVAVYYCQHSWEIPLTFGQGTKLEIK",Receptor downregulation (% remaining at 0.16 µg/mL antibody),[3],37.3%
same,Kd,[4],0.697 nM
"AB-14.11 (antibody, V domains shown) VH: QVQLVQSGAEVKKPGASVKVSCKASGYTFTDYNYHWVRQAPGQGLEWIGFIYPSNGITGYAQKFQGRVTMTVDTSTSTVYMELSSLRSEDTAVYYCARSSVDYFDYWGQGTLVTVSS VL: DIQMTQSPSSLSASVGDRVTITCRASQDVSTSTYSYMHWYQQKPGKAPKLLIKYVSNLESGVPSRFSGSGSGTDFTLTISSLQPEDFATYYCQHSWEIPLTFGQGTKLEIK",Fold affinity improvement over parental Ab (AB-H14),[1],14.1 fold
same,Kd,[1],0.205 nM
same,koff,[1],0.0002 s⁻¹
same,kon,[1],974000 M⁻¹ s⁻¹
same,Maximal Downregulation (% CD33 remaining),[2],27.5%
same,Receptor downregulation (EC50),[2],0.047 nM
"AB-14.9 (antibody, V domains shown) VH: QVQLVQSGAEVKKPGASVKVSCKASGYTFTDYNYHWVRQAPGQGLEWIGFIYPSNGITGYAQKFQGRVTMTVDTSTSTVYMELSSLRSEDTAVYYCARSDVDYFDYWGQGTLVTVSS VL: GIQMTQSPSSLSASVGDRVTITCRASQSVGTSTYSYMHWYQQKPGKAPKLLIKYAVNLESGVPSRFSGSGSGTDFTLTISSLQPEDFATYYCQHSWEIPLTFGQGTKLEIK",Fold affinity improvement over parental Ab (AB-H14),[1],13.4 fold
same,Kd,[1],0.217 nM
same,koff,[1],0.0002 s⁻¹
same,kon,[1],921000 M⁻¹ s⁻¹
same,Maximal Downregulation (% CD33 remaining),[2],26.1%
same,Receptor downregulation (EC50),[2],0.0399 nM
"AB-64.1.1 (antibody, V domains shown, Variant of AB-64.1) VH: QVQLVQSGAEVKKPGASVKISCKASGYTFTDYNLHWVRQAPGQGLEWIGFIYPSNQITGYAQKFQGRATLTVDNSTSTAYMELSSLRSEDTAVYYCARSDVDYFDYWGQGTLLTVSS VL: DIVLTQSPDSLAVSLGERATINCRASQSVSTSTYSYMHWYQQKPGQPPKLLIKYASNLESGVPDRFSGSGSGTDFTLTISSLQAEDVAVYYCQHSWEIPLTFGQGTKLEIK",Receptor downregulation (% remaining at 0.16 µg/mL antibody),[3],37%
same,Kd,[4],0.429 nM
"Chimeric Ab #2 (antibody, V domains shown, Chimeric Ab with a VH-FR3 mutation that removes the predicted N-glycosylation site) VH: EVQLQQSGPELVKPGASVKISCKASGYTFTDYNLHWVKLSHGKSLEWIGFIYPSNGITGYNQKFKNKATLTVDTSSSTAYMELRSLTSEDSAVYYCARSTVDYFDYWGQGTTLTVSS VL: DIVLTQSPASLAVSLGQRATMSCRASQSVSTSTYSYMHWYQQKPGQPPKLLIKYASNLESGVPARFSGSGSGTDFTLNIHPVEEEDTATYYCQHSWEIPLTFGAGTKLELK",Maximal Downregulation (% CD33 remaining),[5],23.2%
same,Receptor downregulation (EC50),[5],0.119 nM
same,Maximal Downregulation (% CD33 remaining),[6],23.2%
same,Receptor downregulation (EC50),[6],0.119 nM
same,Fold Change to Chimeric Ab,[7],0.56 fold
same,Kd,[7],2.89 nM
same,koff,[7],0.00286 s⁻¹
same,kon,[7],991000 M⁻¹ s⁻¹
